Source: US20030224390A1, “Method of identifying conformation-sensitive binding peptides and uses thereof” (Karo Bio AB, priority 2000, published 2003)

B1: B2A7 (peptide)
chain: MKLLSSIEQACDICRLKKLKCSKEKPKCAKCLKNNWECRYSPKTKRSPLTRAHLTEVESRLERLEQLFLLIFPREDLDMILKMDSLQDIKALLTGLFVQDNVNKDAVTDRLASVETDMPLTLRQHRISATSSSEESSNKGQRQLTVSEFPELLAMTRWGRHAALLEPQRLPPPRTTTQPQTEFERMFFFTRPMRTTGLLDLQPS
B2: B8A10 (peptide)
chain: MKLLSSIEQACDICRLKKLKCSKEKPKCAKCLKNNWECRYSPKTKRSPLTRAHLTEVESRLERLEQLFLLIFPREDLDMILKMDSLQDIKALLTGLFVQDNVNKDAVTDRLASVETDMPLTLRQHRISATSSSEESSNKGQRQLTVSEFVNWDAVVPWSELVALLDLQPS
B3: M2H3 (peptide)
chain: MKLLSSIEQACDICRLKKLKCSKEKPKCAKCLKNNWECRYSPKTKRSPLTRAHLTEVESRLERLEQLFLLIFPREDLDMILKMDSLQDIKALLTGLFVQDNVNKDAVTDRLASVETDMPLTLRQHRISATSSSEESSNKGQRQLTVSEFRQSFVSEILGGGWLPLDLQPS
B4: M4D1 (peptide)
chain: MKLLSSIEQACDICRLKKLKCSKEKPKCAKCLKNNWECRYSPKTKRSPLTRAHLTEVESRLERLEQLFLLIFPREDLDMILKMDSLQDIKALLTGLFVQDNVNKDAVTDRLASVETDMPLTLRQHRISATSSSEESSNKGQRQLTVSEFRFPFHEMVREWESMGLERVRYAEP

Experiments:
[1] = biological target: T1, Gal4 transcriptional activation domain (AD) fused in frame with AR (pGAD-C2) (yeast, UniProt P10275 1-920, limits assumed); assay: cell-based or functional assay
T1 sequence (looked up): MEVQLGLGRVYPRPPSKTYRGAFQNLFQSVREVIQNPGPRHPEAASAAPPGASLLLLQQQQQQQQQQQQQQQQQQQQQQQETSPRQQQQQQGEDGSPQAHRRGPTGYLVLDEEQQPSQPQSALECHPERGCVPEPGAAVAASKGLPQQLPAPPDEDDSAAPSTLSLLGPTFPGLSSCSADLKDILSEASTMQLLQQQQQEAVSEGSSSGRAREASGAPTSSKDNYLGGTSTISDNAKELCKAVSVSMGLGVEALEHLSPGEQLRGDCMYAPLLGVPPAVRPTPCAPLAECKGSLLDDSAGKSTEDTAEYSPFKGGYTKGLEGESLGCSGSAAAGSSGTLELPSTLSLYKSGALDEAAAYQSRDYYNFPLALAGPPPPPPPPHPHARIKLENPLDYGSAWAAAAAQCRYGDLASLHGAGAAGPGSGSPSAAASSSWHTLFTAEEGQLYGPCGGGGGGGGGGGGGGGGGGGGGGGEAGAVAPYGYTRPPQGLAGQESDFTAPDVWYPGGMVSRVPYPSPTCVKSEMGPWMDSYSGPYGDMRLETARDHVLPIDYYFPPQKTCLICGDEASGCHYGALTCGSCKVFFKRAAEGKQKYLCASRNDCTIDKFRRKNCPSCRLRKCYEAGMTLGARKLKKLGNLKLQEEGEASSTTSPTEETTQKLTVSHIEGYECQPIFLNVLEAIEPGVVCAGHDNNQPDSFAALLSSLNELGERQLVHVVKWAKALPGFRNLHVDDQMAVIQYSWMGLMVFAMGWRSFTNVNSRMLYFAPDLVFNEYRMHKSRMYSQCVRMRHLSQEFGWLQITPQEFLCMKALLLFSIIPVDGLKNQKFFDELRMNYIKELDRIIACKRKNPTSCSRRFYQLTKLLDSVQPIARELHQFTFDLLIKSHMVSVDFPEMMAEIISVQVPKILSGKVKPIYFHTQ

[2] = biological target: T1, Gal4 transcriptional activation domain …; assay: cell-based or functional assay; remark: listed apart in the source
[3] = biological target: ER β (immobilized, in vitro phage assays) (UniProt Q92731 1-530, limits assumed); assay: phage ELISA; ICI 182,780 1 µM
Sequence of ER β (immobilized, in vitro phage assays) (Q92731 whole entry): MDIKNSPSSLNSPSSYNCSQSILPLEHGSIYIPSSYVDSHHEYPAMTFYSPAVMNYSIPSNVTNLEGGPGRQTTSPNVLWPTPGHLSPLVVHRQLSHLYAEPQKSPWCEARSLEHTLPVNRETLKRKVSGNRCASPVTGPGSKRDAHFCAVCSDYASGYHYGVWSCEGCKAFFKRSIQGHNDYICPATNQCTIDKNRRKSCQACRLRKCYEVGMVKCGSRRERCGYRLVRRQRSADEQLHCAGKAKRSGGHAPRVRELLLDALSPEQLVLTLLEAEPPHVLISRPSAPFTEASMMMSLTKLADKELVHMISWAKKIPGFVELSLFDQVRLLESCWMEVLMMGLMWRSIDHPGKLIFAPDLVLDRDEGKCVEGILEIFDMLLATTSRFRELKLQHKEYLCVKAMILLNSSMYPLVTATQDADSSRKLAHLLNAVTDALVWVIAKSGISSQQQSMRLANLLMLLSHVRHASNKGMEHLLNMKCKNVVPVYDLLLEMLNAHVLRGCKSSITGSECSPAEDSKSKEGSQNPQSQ

Row | Binder | Fold induction, yeast two-hybrid [1] | β-galactosidase activity, yeast two-hybrid; CPA [2] | β-galactosidase activity, yeast two-hybrid; DHT [2] | β-galactosidase activity, yeast two-hybrid; No Lig [2] | β-galactosidase activity, yeast two-hybrid; RU [2] | phage ELISA grade [3]
1 | B1 | 5 fold | 0.292 | 1.72 | 0.371 | 0.5 | 
2 | B2 | 1 fold | 0.395 | 0.616 | 0.875 | 0.4 | 
3 | B3 | 10 fold | 8.59 | 24.1 | 2.53 | 6.8 | 
4 | B4 | > 2 fold | -0.0396 | 0.395 | 0 | 0.1 | 
5 | SSPGSREWFKDMLSR (also called 14Tβ; 14T-β) [α/β V (AB5)] |  |  |  |  |  | 0
6 | SSLDLSQFPMTASFLRESR (also called 35Eβ) [β II (B2)] |  |  |  |  |  | 0
